Consider 1 molecule from paper PMC7863392 (EMBO Molecular Medicine, 2020).

In test [1] the target is T1, recombinant, His-tagged PSMA produced by transfected CHO cells (Homo sapiens, UniProt Q04609).
T1 construct: prostate-specific membrane antigen (PSMA; FOLH1); probably the soluble extracellular part (surmised); source: transfected CHO cells
The test is described as follows: SPR; chimeric antibodies immobilised on a Protein A coated sensor chip; His-tagged PSMA flowed; Biacore X, 25°C, 30 μl/min. As to conditions: both partners purified. For orientation: In SPR one partner is held on a chip, and binding of the other changes the refractive index at the surface.

Test [2] has as its target T2, PSMA in lysates of 22Rv1^high cells and of lung SCC tumor samples (Homo sapiens, UniProt Q04609-1).
T2 construct: prostate-specific membrane antigen (PSMA; FOLH1), human, endogenous; also called FOLH1; source: endogenous, lysates of 22Rv1^high cells and of slices of lung squamous cell carcinoma tumors
The test is described as follows: co-IP; immunoprecipitation of PSMA from 22Rv1^high cell lysate with chimeric antibody on protein G agarose beads; Western blot with murine J591. The settings on record: one partner purified. In general terms: A western blot detects proteins with antibodies after separation by electrophoresis.

T1 sequence (Q04609 56-750): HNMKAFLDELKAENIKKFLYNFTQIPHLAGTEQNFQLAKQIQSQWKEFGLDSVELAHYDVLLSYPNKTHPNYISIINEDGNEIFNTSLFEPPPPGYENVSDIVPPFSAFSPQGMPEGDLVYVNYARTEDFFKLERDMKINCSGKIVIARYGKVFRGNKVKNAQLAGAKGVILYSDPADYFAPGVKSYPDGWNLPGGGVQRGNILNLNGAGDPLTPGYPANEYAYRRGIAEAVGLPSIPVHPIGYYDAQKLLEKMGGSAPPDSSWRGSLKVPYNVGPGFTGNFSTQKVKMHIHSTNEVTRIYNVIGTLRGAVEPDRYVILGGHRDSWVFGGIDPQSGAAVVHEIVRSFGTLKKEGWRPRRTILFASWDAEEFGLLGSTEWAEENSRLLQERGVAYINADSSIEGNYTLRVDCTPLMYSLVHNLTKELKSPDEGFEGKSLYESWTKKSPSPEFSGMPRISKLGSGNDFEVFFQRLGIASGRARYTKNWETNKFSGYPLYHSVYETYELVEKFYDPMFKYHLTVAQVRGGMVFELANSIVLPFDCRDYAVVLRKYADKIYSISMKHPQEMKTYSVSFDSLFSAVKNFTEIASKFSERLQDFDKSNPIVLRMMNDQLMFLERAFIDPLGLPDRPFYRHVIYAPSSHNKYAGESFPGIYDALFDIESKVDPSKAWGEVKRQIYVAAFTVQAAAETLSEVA
T2 sequence (Q04609 whole entry): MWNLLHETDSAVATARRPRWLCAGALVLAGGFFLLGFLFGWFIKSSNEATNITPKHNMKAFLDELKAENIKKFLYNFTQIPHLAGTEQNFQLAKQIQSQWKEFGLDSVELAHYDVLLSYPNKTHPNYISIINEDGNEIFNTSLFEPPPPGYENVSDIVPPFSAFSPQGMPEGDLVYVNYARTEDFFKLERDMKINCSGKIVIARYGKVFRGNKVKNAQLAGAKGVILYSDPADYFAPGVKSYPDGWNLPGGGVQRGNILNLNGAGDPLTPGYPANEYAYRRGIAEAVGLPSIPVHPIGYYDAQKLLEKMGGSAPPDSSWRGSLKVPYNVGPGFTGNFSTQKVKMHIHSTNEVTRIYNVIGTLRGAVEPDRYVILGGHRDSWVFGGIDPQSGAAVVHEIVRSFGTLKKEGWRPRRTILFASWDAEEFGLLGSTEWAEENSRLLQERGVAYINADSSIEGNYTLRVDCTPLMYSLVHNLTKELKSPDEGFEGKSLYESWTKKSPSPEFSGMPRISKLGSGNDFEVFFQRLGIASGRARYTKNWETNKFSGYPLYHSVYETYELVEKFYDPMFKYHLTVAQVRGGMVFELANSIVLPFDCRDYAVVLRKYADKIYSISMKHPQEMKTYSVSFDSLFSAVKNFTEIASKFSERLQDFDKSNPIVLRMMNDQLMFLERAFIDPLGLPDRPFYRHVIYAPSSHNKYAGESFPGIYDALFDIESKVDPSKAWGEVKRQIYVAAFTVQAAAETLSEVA

B1: chimeric J591 antibody (murine J591 variable regions fused to human constant regions) (antibody, V domains shown)
VH: EVQLQQSGPELVKPGTSVRISCKTSGYTFTEYTIHWVKQSHGKSLEWIGNINPNNGGTTYNQKFEDKATLTVDKSSSTAYMELRSLTSEDSAVYYCAAGWNFDYWGQGTTLTVSS
VL: DIVMTQSHKFMSTSVGDRVSIICKASQDVGTAVDWYQQKPGQSPKLLIYWASTRHTGVPDRFTGSGSGTDFTLAITNVQSEDLADYFCQQYNSYPLTFGAGTKLEIK
Consider B1, for which the binding result in test [1] and in test [2] was “binds” throughout.
